Values of other authors, collected in article PMC6425487.

Biological target: Cterm (position 6, KEKGLF-----)
Test: NMR
Conditions: 150 mM; free peptide in solution

Protein: KEKGLF
- pKa: 3.2
